Assay results as given in the supplement of paper PMC11908140.

B1: library; numbered along this chain (parent)
chain: MRKPRAAVGSGHRKQAASQEGRQKHAKNNSQAKPSACDGLARQPEEVVLQASVSSYHLFRDVAEVTAFRGSLLSWYDQEKRDLPWRRRAEDEMDLDRRAYAVWVSEVMLQQTQVATVINYYTGWMQKWPTLQDLASASLEEVNQLWAGLGYYSRGRRLQEGARKVVEELGGHMPRTAETLQQLLPGVGRYTAGAIASIAFGQATGVVDGNVARVLCRVRAIGADPSSTLVSQQLWGLAQQLVDPARPGDFNQAAMELGATVCTPQRPLCSQCPVESLCRARQRVEQEQLLASGSLSGSPDVEECAPNTGQCHLCLPPSEPWDQTLGVVNFPRKASRKPPREESSATCVLEQPGALGAQILLVQRPNSGLLAGLWEFPSVTWEPSEQLQRKALLQELQRWAGPLPATHLRHLGEVVHTFSHIKLTYQVYGLALEGQTPVTTVPPGARWLTQEEFHTAAVSTAMKKVFRVYQGQQPGTCMGSKRSQVSSPCSRKKPRMGQQVLDNFFRSHISTDAHSLNSAAQ

Variants of: B1
Test: 8OG:A repair function score (normalized; synonymous = 0, nonsense = -1) (normalized log-likelihood score); higher = more repair activity (WT-like)
Details: with 8OG:A DNA repair reporter (GFP) in HEK-293 MUTYH KO cells
In short: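 After 72 h, viable mCherry+ cells were split into GFP+ (repair) and GFP− bins in three replicates per tile. These cells were MUTYH knockout HEK-293 cells holding lentiviral MUTYH cDNA NNN codon-scan libraries, kept in 10 pg/ml doxycycline and co-transfected with mCherry plus an 8OG:A GFP repair reporter. Sequencing of tile amplicons gave per-tile Rosace fitness scores, normalized into a repair function score anchored on synonymous and nonsense distributions. Synonymous medians were fixed at 0, nonsense at -1, and variants under 300 counts per million at the start were removed.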
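Further: cells sorted at 72 h after reporter transfection.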

Going from MRKPRAAVGSGHRKQAASQEGRQKHAKNNSQAKPSACDGLARQPEEVVLQASVSSYHLFRDVTEVTAFRGSLLSWYDQEKRDLPWRRRAEDEMDLDRRAYAVWVSEVMLQQTQVATVINYYTGWMQKWPTLQDLASASLEEVNQLWAGLGYYSRGRRLQEGARKVVEELGGHMPRTAETLQQLLPGVGRYTAGAIASIAFGQATGVVDGNVARVLCRVRAIGADPSSTLVSQQLWGLAQQLVDPARPGDFNQAAMELGATVCTPQRPLCSQCPVESLCRARQRVEQEQLLASGSLSGSPDVEECAPNTGQCHLCLPPSEPWDQTLGVVNFPRKASRKPPREESSATCVLEQPGALGAQILLVQRPNSGLLAGLWEFPSVTWEPSEQLQRKALLQELQRWAGPLPATHLRHLGEVVHTFSHIKLTYQVYGLALEGQTPVTTVPPGARWLTQEEFHTAAVSTAMKKVFRVYQGQQPGTCMGSKRSQVSSPCSRKKPRMGQQVLDNFFRSHISTDAHSLNSAAQ [A63T] to MRKPRAAVGSGHRKQAASQEGRQKHAKNNSQAKPSACDGLARQPEEVVLQASVSSYHLFRDVAEVTAFRGSLLSWYDQEKRDLPWRRRAEDEMDLDRRAYAVWVSEVMLQQTQVATVINYYTGWMQKWPTLQDLASASLEEVNQLWAGLGYYSRGRRLQEGARKVVEELGGHMPRTAETLQQLLPGVGRYTAGAIASIAFGQATGVVDGNVARVLCRVRAIGADPSSTLVSQQLWGLAQQLVDPARPGDFNQAAMELGATVCTPQRPLCSQCPVESLCRARQRVEQEQLLASGSLSGSPDVEECAPNTGQCHLCLPPSEPWDQTLGVVNFPRKASRKPPREESSATCVLEQPGALGAQILLVQRPNSGLLAGLWEFPSVTWEPSEQLQRKALLQELQRWAGPLPATHLRHLGEVVHTFSHIKLTYQVYGLALEGQTPVTTVPPGARWLTQEEFHTAAVSTAMKKVFRVYQGQQFGTCMGSKRSQVSSPCSRKKPRMGQQVLDNFFRSHISTDAHSLNSAAQ [P474F], the “8OG:A repair function score” value rises from 0.00284 to 0.0108.

Going from MRKPRAAVGSGHRKQAASQEGRQKHAKNNSQAKPSACDGLARQPEEVVLQASVSSYHLFRDVAEVTAFRGSLLSWYDQEKRDLPWRRRAEDEMDLDRRAYAVWVSEVMLQQTQVATVINYYTGWMQKWPTLQDLASASLEEVNQLWAGLGYYSRGRRLQEGARKVVEELGGHMPRTAETLQQLLPGVGRYTAGAIASIAFGQATGVVDGNVARVLCRVRAIGADPSSTLVSQQLWGLAQQLVDPARPGDFNQAAMELGATVCTPQRPLCSQCPVESLCRARQRVEQEQLLASGSLSGSPDVEECAPNTGQCHLCLPPSEPWDQTLGVVNFPRKASRKPPREESSATCVLEQPGALGAQILLVQRPNSGLLAGLWEFPSVTWEPSEQLQRKALLQELQRWAGPLPATHLRHLGEVVHTFSHIKLTYQVYGLALEGQTPVTTVPPGARWLTQEEFHTAAVSTAMKKVFRVYQGQQPGTCMGSKRSQVSSPCSRKKPRMGQQVLDNFFFSHISTDAHSLNSAAQ [R506F] to MRKPRAAVGSGHRKQAASQEGRQKHAKNNSQAKPSACDGLARQPEEVVLQASVSSYHLFRDVAEVTAFRGSLLSWYDQEKRDLPWRRRAEDEMDLDRRAYAVWVSEVMLQQTQVATVINYYTGWMQKWPTLQDLASASLEEVNQLWAGLGYYSRGRRLQEGARKVVEELGGHMPRTAETLQQLLPGVGRYTAGAIASIAFGQATGVVDGNVARVLCRVRAIGADPSSTLVSQQLWGLAQQLVDPARPGDFNQAAMELGATVCTPQRPLCSQCPVESLCRARQRVEQEQLLASGSLSGSPDVEECAPNTGQCHLCLPPSEPWDQTLGVVNFPRKASRKPPREESSATCVLEQPGWLGAQILLVQRPNSGLLAGLWEFPSVTWEPSEQLQRKALLQELQRWAGPLPATHLRHLGEVVHTFSHIKLTYQVYGLALEGQTPVTTVPPGARWLTQEEFHTAAVSTAMKKVFRVYQGQQPGTCMGSKRSQVSSPCSRKKPRMGQQVLDNFFRSHISTDAHSLNSAAQ [A354W], the “8OG:A repair function score” value falls from -0.0582 to -0.0982.

Going from MRKPRAAVGSGHRKQAASQEGRQKHAKNNSQAKPSACDGLARQPEEVVLQASVSSYHLFRDVAEVTAFRGSLLSWYDQEKRDLPWRRRADDEMDLDRRAYAVWVSEVMLQQTQVATVINYYTGWMQKWPTLQDLASASLEEVNQLWAGLGYYSRGRRLQEGARKVVEELGGHMPRTAETLQQLLPGVGRYTAGAIASIAFGQATGVVDGNVARVLCRVRAIGADPSSTLVSQQLWGLAQQLVDPARPGDFNQAAMELGATVCTPQRPLCSQCPVESLCRARQRVEQEQLLASGSLSGSPDVEECAPNTGQCHLCLPPSEPWDQTLGVVNFPRKASRKPPREESSATCVLEQPGALGAQILLVQRPNSGLLAGLWEFPSVTWEPSEQLQRKALLQELQRWAGPLPATHLRHLGEVVHTFSHIKLTYQVYGLALEGQTPVTTVPPGARWLTQEEFHTAAVSTAMKKVFRVYQGQQPGTCMGSKRSQVSSPCSRKKPRMGQQVLDNFFRSHISTDAHSLNSAAQ [E90D] to MRKPRAAVGSGHRKQAASQEGRQKHAKNNSQAKPSACDGLARQPEEVVLQASVSSYHLFRDVAEVTAFRGSLLSWYDQEKRDLPWRRRAEDEMDLDRRAYAVWVSEVMLQQTQVATVINYYTGWMQKWPTLQDLASASLEEVNQLWAGLGYYSRGRRLQEGARKVVEELGGHMPRTAETLQQLLPGVGRYTAGAIASIAFGQATGVVDGNVARVLCRVRAIGADPSSTLVSQQLWGLAQQLVDPARPGDFNQAAMELGATVCTPQRPLCSQCPVESLCRARQRVEQEQLLASGSLSGSPDVEECAPNTGQCHLCLPPSEPWDQTLGVVNFPRKASRKPPREESSATCVLEQPGALGAQILLVQRPNSGLLAGLWEFPSVTWEPSEQLQRKALLQELQRWAGPLPATHLRHLGEVVHTFSHIKLTYQVYGLALEGQTPVTTVPPGARWLTQEEFHTADVSTAMKKVFRVYQGQQPGTCMGSKRSQVSSPCSRKKPRMGQQVLDNFFRSHISTDAHSLNSAAQ [A457D], the “8OG:A repair function score” value falls from 0.000961 to -0.44.
